From US20220062371A1, “LIGAND-DRUG-CONJUGATES AS SUBSTRATES FOR SELECTIVE CLEAVAGE BY THE EXOPEPTIDASE ACTIVITY OF CATHEPSIN B” (DEBIOPHARM RESEARCH & MANUFACTURING S.A., priority 2017, published 2022)

Target: Recombinant human Cathepsin B (human) (UniProt P07858)
Assay: cell-based or functional assay

“ADC1, AF-Arg-Lys(PEG4-Mal-trastuzumab)-Phe-OH (antibody)” gave a T 1/2 of release of AF-Arg by Cat B of less than 5 min.
